Among the data in paper PMC10320429 are ΔHLA (% control) values, retold here.

This assay has as its target HLA-A*11:01 on TAP2-KO HLA class I monoallelic TISI cells (human | human (endogenous in TISI)). In words: flow cytometry on cells.
As to VVGAAGVGK [KRAS_G12A epitope peptide …], the ΔHLA (% control) worked out at 218%.

Take KAISTRDPLSK: the ΔHLA (% control) was 127%.

VVGAGDVGK: the ΔHLA (% control) is 181%.

For ISTRDPLSK, the ΔHLA (% control) came to 124%.

Regarding VVGACGVGK [KRAS_G12C epitope peptide …], the ΔHLA (% control) was 234%.

VVGASGVGK [KRAS_G12S epitope peptide …] returned a ΔHLA (% control) of 219%.

Consider VVVGAGDVGK, for which the ΔHLA (% control) was 195%.

Regarding SSCMGSMNR [TP53_G245S epitope peptide …], the ΔHLA (% control) came out at 107%.
